# Patent publication US20210130452A1 (Merck KGaA, published 2021)
# Several values for one entry are separate records, joined by “and”; a condition that tells them apart may be missing. Equal values may be shown once. Read-outs that look alike come from different tables or passages of the source.
# T1: human IL-17F (human, UniProt Q96PD4 31-163)
# T1 sequence: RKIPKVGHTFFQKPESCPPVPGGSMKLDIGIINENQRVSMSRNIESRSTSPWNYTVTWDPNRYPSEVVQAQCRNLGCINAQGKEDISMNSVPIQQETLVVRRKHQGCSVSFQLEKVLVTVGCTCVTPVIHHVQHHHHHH
# T2: human IL-17F (human, UniProt Q96PD4 31-163)
# T2 construct: made in Hek293 cells (GenBank AF384857); also called hIL-17F; hIL17F
# T2 sequence: T1 sequence
# T3: Cynomolgus monkey IL-17F (Cynomolgus monkey, UniProt G7P4V0 31-163)
# T3 construct: also called cyno IL-17F; cIL-17F
# T3 sequence: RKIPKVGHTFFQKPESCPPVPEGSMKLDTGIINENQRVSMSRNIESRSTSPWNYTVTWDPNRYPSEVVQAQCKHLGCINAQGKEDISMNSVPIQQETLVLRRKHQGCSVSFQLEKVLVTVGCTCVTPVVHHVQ
# B1: 13E02-LH-Fc (Fc fusion, not shown: a dimerising Fc or GST)
# chain: EVQLVESGGGLVQAGGSLRLSCAASGRTYDAMGWLRQAPGKEREFVAAISGSGDDTYYADSVKGRFTISKDNAGITMYLQMNSLKPEDTAVYYCATRRGLYYVWDSNDYENWGQGTQVTVSSEPKTPKPQPQPQPQPNPTTESKCPKCP
# notes: bivalent Fc fusion from Hek-293-6E cells; also called MSB0010606
# B2: 13B03-LH-Fc (Fc fusion, not shown: a dimerising Fc or GST)
# chain: EVQLVESGGGSVQAGDSLRLSCAASGRANSINWFGWFRQTPGKEREFVAGIRWSDAYTEYANSVKGRFTISRDNAKNTVDLQMDSLKPEDTAVYYCVLDLSTVRYWGQGTQVTVSSEPKTPKPQPQPQPQPNPTTESKCPKCP
# notes: bivalent Fc fusion from Hek-293-6E cells; also called MSB0010530
# B3: IL17MS13B03 (VHH)
# VHH: EVQLVESGGGSVQAGDSLRLSCAASGRANSINWFGWFRQTPGKEREFVAGIRWSDAYTEYANSVKGRFTISRDNAKNTVDLQMDSLKPEDTAVYYCVLDLSTVRYWGQGTQVTVSS
# notes: Class 4 Nanobody, wild type; also called WT
# B4: IL17MS13E02 (VHH)
# VHH: EVQLVESGGGLVQAGGSLRLSCAASGRTYDAMGWLRQAPGKEREFVAAISGSGDDTYYADSVKGRFTISKDNAGITMYLQMNSLKPEDTAVYYCATRRGLYYVWDSNDYENWGQGTQVTVSS
# notes: as for B3
# B5: IL17MS3072 (VHH)
# VHH: DVQLVESGGGLVQPGGSLRLSCAASGRTYDALGWLRQAPGKEREFVAAISGSGDDTYYADSVKGRFTISRDNSKNTLYLQMNSLRPEDTAVYYCATRRGLYYVWDANDYENWGQGTLVTVSS
# notes: variant of IL17MS13E02; Kabat numbering
# B6: 13E02-SH-Fc (Fc fusion, not shown: a dimerising Fc or GST)
# chain: EVQLVESGGGLVQAGGSLRLSCAASGRTYDAMGWLRQAPGKEREFVAAISGSGDDTYYADSVKGRFTISKDNAGITMYLQMNSLKPEDTAVYYCATRRGLYYVWDSNDYENWGQGTQVTVSSEPKSSDKTHTCPPCP
# notes: bivalent Fc fusion from Hek-293-6E cells
# Legend:
# [1] = target: T4, human IL-17A (human, UniProt Q16552 24-155); assay: cell-based or functional assay
# T4 sequence (Q16552 other isoform, or with tags, fused parts or gaps): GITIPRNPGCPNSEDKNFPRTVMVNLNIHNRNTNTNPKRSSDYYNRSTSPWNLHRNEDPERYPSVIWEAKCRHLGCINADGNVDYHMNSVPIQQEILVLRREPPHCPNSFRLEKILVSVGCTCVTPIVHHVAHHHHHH
# [2] = target: T1, human IL-17F; assay: cell-based or functional assay
# [3] = target: Cynomolgus monkey IL-17A (Cynomolgus monkey, UniProt A0A2K5TTB0 24-155); assay: cell-based or functional assay
# Target sequence in this assay (A0A2K5TTB0 entry or part of it): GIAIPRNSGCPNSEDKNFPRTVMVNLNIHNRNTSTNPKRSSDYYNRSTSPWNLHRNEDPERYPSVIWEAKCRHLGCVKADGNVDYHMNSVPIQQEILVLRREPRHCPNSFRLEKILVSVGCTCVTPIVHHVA
# [4] = target: T1, human IL-17F; assay: KinExA, 600 pM Nanobody
# [5] = target: T4, human IL-17A; assay: cell-based or functional assay; remark: listed apart in the source
# [6] = target: T1, human IL-17F; assay: cell-based or functional assay; remark: listed apart in the source
# [7] = target: T1, human IL-17F; assay: KinExA, 10 pM Nanobody
# [8] = target: T4, human IL-17A; assay: competition ELISA IL17A-RA
# Method: To this end, IL-17RA, respectively IL-17RC was coated at a concentration of 1 μg/ml in PBS.
# [9] = target: T4, human IL-17A; assay: KinExA, 50 pM Nanobody
# Method: (§1) The affinity of a limited set of formatted Nanobodies was determined using the KinExA.
# [10] = target: T1, human IL-17F; assay: KinExA, 50 pM Nanobody
# Method: as §1
# [11] = target: T2, human IL-17F; assay: SPR (Biacore) off-rate
# [12] = target: T5, Cynomolgus monkey IL-17A (Cynomolgus monkey, UniProt A0A2K5TTB0 24-155); assay: SPR (Biacore) off-rate
# T5 construct: also called cyno IL-17A; cIL-17A
# T5 sequence (A0A2K5TTB0 entry or part of it): as above
# [13] = target: T6, human IL-17A (human, UniProt Q16552 24-155); assay: SPR (Biacore) off-rate
# T6 construct: secreted form made in Hek293 cells (GenBank U32659); also called hIL-17A; hIL17A
# T6 sequence (Q16552 other isoform, or with tags, fused parts or gaps): as the sequence (Q16552 other isoform, or with tags, fused parts or gaps) above
# [14] = target: T7, human IL-17A/F heterodimer (human, UniProt Q16552 24-155; Q96PD4 31-163, limits assumed); assay: SPR (Biacore) off-rate
# T7 construct: bought, made in E. coli (R&D Systems 5194-IL/CF); also called hIL-17A/F; hIL17A/F
# Target sequence in this assay (Q16552 24-155 limits assumed, one chain of several): as the sequence (A0A2K5TTB0 entry or part of it) above, with A3T, S8P, S34N, V77I, K78N, R104P counted along it
# [15] = target: T3, Cynomolgus monkey IL-17F; assay: SPR (Biacore) off-rate
# [16] = target: T6, human IL-17A; assay: AlphaScreen hIL-17A-IL-17RA; reference itself
# [17] = target: T2, human IL-17F; assay: cell-based or functional assay; remark: listed apart in the source
# [18] = target: T6, human IL-17A; assay: cell-based or functional assay; remark: listed apart in the source
# [19] = target: T7, human IL-17A/F heterodimer; assay: cell-based or functional assay
# Target sequence in this assay (Q16552 24-155 limits assumed, one chain of several): as the sequence (A0A2K5TTB0 entry or part of it) above, with A3T, S8P, S34N, V77I, K78N, R104P counted along it
# [20] = target: T3, Cynomolgus monkey IL-17F; assay: cell-based or functional assay
# [21] = target: T2, human IL-17F; assay: SPR (Biacore) off-rate; remark: listed apart in the source
# [22] = target: T6, human IL-17A; assay: SPR (Biacore) off-rate; remark: listed apart in the source
# [23] = target: T7, human IL-17A/F heterodimer; assay: SPR (Biacore) off-rate; remark: listed apart in the source
# Target sequence in this assay (Q16552 24-155 limits assumed, one chain of several): as the sequence (A0A2K5TTB0 entry or part of it) above, with A3T, S8P, S34N, V77I, K78N, R104P counted along it
# [24] = target: T2, human IL-17F; assay: AlphaScreen hIL-17F-IL-17RC; reference itself
# [25] = target: T2, human IL-17F; assay: AlphaScreen hIL-17F-IL-17RC; reference itself; remark: listed apart in the source
# [26] = target: T6, human IL-17A; assay: AlphaScreen hIL-17A-IL-17RA; reference itself; remark: listed apart in the source
# [27] = target: T2, human IL-17F; assay: SPR (Biacore) off-rate; remark: listed apart in the source
# [28] = target: T6, human IL-17A; assay: SPR (Biacore) off-rate; remark: listed apart in the source
# [29] = target: T7, human IL-17A/F heterodimer; assay: SPR (Biacore) off-rate; remark: listed apart in the source
# Target sequence in this assay (Q16552 24-155 limits assumed, chain 1 of 2, one chain of several): as the sequence (A0A2K5TTB0 entry or part of it) above, with A3T, S8P, S34N, V77I, K78N, R104P counted along it
# [30] = target: T2, human IL-17F; assay: cell-based or functional assay; remark: listed apart in the source
# [31] = target: T6, human IL-17A; assay: cell-based or functional assay; remark: listed apart in the source
# [32] = target: T7, human IL-17A/F heterodimer; assay: cell-based or functional assay; remark: listed apart in the source
# Target sequence in this assay (Q16552 24-155 limits assumed, one chain of several): as the sequence (A0A2K5TTB0 entry or part of it) above, with A3T, S8P, S34N, V77I, K78N, R104P counted along it
# [33] = target: T3, Cynomolgus monkey IL-17F; assay: cell-based or functional assay; remark: listed apart in the source
# [34] = target: T2, human IL-17F; assay: AlphaScreen hIL-17F-IL-17RC; reference itself; remark: listed apart in the source
# [35] = target: T6, human IL-17A; assay: AlphaScreen hIL-17A-IL-17RA; reference itself; remark: listed apart in the source
# [36] = target: T2, human IL-17F; assay: AlphaScreen hIL-17F-IL-17RC; reference itself; remark: listed apart in the source
# [37] = target: T2, human IL-17F; assay: SPR (Biacore) off-rate; remark: listed apart in the source
# [38] = target: T5, Cynomolgus monkey IL-17A; assay: SPR (Biacore) off-rate; remark: listed apart in the source
# [39] = target: T6, human IL-17A; assay: SPR (Biacore) off-rate; remark: listed apart in the source
# [40] = target: T7, human IL-17A/F heterodimer; assay: SPR (Biacore) off-rate; remark: listed apart in the source
# Target sequence in this assay (Q16552 24-155 limits assumed, one chain of several): as the sequence (A0A2K5TTB0 entry or part of it) above, with A3T, S8P, S34N, V77I, K78N, R104P counted along it
# [41] = target: T3, Cynomolgus monkey IL-17F; assay: SPR (Biacore) off-rate; remark: listed apart in the source
# [42] = target: T6, human IL-17A; assay: AlphaScreen hIL-17A-IL-17RA; reference itself; remark: listed apart in the source
# [43] = target: T2, human IL-17F; assay: AlphaScreen hIL-17F-IL-17RC; vs IL17MS13E02
# [44] = target: T6, human IL-17A; assay: AlphaScreen hIL-17A-IL-17RA; vs IL17MS13E02
# [45] = target: T4, human IL-17A; assay: KinExA, 30 pM Nanobody
# [46] = target: T4, human IL-17A; assay: KinExA, 100 pM Nanobody
# Method: as §1
binder,measurement,setting,value
B1,"Emax, hIL-17A induced IL-6, HT-1080, 100 µM HSA",[1],98.5%
same,"IC50, hIL-17A induced IL-6, HT-1080, 100 µM HSA",[1],0.85 nM
same,"IC50, hIL-17F induced IL-6, HT-1080, 100 µM HSA",[2],15.3 nM
same,"IC50, Cyno IL17A, HT-1080 bioassay",[3],0.19 nM
same,Kd,[4],2.04 nM
same,"IC50, hIL-17A induced IL-6, HT-1080, without HSA",[5],0.19 nM
same,"IC50, hIL-17F induced IL-6, HT-1080, without HSA",[6],2.7 nM
B2,"Emax, hIL-17A induced IL-6, HT-1080, 100 µM HSA",[1],97.5%
same,"IC50, hIL-17A induced IL-6, HT-1080, 100 µM HSA",[1],0.95 nM
same,"IC50, hIL-17F induced IL-6, HT-1080, 100 µM HSA",[2],15.6 nM
same,Kd,[7],0.0223 nM
same,IC50,[8],0.031 nM
same,Kd,[9],0.002 nM
same,Kd,[10],0.02 nM
B3,koff,[11],0.00792 s⁻¹
same,koff,[12],0.000114 s⁻¹
same,koff,[13],0.000131 s⁻¹ and 0.000208 s⁻¹
same,koff,[14],6.21e-05 to 0.000125 s⁻¹
same,koff,[15],0.00469 s⁻¹
same,IC50 fold difference compared to WT,[16],1 fold
same,IC50 cell based assay hIL17F,[17],35 nM
same,IC50 cell based assay hIL17A,[18],1.34 nM
same,IC50 cell based assay hIL17A/F,[19],4.32 nM
same,IC50 cell based assay cyno IL17F,[20],29 nM
same,koff,[21],0.00792 s⁻¹
same,koff,[22],0.000131 s⁻¹ and 0.000208 s⁻¹
same,koff,[23],6.21e-05 to 0.000125 s⁻¹
same,IC50 fold difference compared to WT,[24],1 fold
same,IC50 fold difference compared to WT,[25],1 fold
same,IC50 fold difference compared to WT,[26],1 fold
B4,koff,[27],0.00223 s⁻¹
same,koff,[28],0.000114 s⁻¹
same,koff,[29],3.97e-05 s⁻¹
same,IC50 cell based assay hIL-17F,[30],44 nM
same,IC50 cell based assay hIL-17A,[31],1.73 nM
same,IC50 cell based assay hIL-17A/F,[32],1.99 nM
same,IC50 cell based assay cyno IL-17F,[33],35 nM
same,IC50 fold difference vs WT,[34],1 fold
same,IC50 fold difference vs WT,[35],1 fold
same,IC50 fold difference vs WT,[36],1 fold
same,koff,[37],0.00223 s⁻¹
same,koff,[38],0.000103 s⁻¹
same,koff,[39],0.000114 s⁻¹
same,koff,[40],3.97e-05 s⁻¹
same,koff,[41],0.046 s⁻¹
same,IC50 fold difference vs WT,[42],1 fold
B5,IC50 fold difference vs WT,[43],0.3 fold
same,IC50 cell based assay hIL-17F,[30],27 nM
same,IC50 cell based assay hIL-17A,[31],0.77 nM
same,IC50 cell based assay hIL-17A/F,[32],3.5 nM
same,IC50 cell based assay cyno IL-17F,[33],25.2 nM
same,IC50 fold difference vs WT,[44],0.59 fold
B6,Kd,[45],0.0036 nM
same,Kd,[46],0.009 nM
